# Assay results taken from US20210388041A1 (NEXEL, published 2021).
# Columns and labels:
# [1] = biological target: T1, integrin β3 (integrin αvβ3) (human, UniProt P05106 27-788; P06756 31-1048); assay: proximity ligation assay in human HSCs
# T1 construct: whole, on cells; The assays detect the β3 chain with an antibody; The legend speaks of integrin αvβ3 on HSCs; also called Integrin B3; integrin β3/β5
# Procedure: (§1) For the PLA incorporation assay, human HSCs were seeded at 2×10⁴ cells per well on the 18 mm circular cover glass in 12-well plates and cultured for 24 hours. After serum starvation for 24 hours, the cells were treated with 10 ng/ml of TGF-β1 and/or 500 ng/ml of NP-011, and then, further incubated for 30 minutes. The PLA incorporation was accessed using the Duolink In Situ Red Starter Kit (Merck) according to the manufacturer's instructions. Digital images of PLA-positive cells were captured using a microscope (Nikon) and analyzed using ImageJ software <https://imagej.nih.gov/iy>.
# (§2) It was investigated herein the mechanism of action for NP-011's rapid and effective suppression TGF-β signaling observed in diseased liver (FIGS. 1E and 2F). One day after administration of NP-011 in TAA-induced fibrotic liver, NP-011 preferentially bound to α-SMA-positive HSCs, and some of NP-011 interacted with macrophages in the liver (FIG. 6). Integrin αvβ3 and αvβ5 on the surface of HSCs have been previously implicated in regulating fibrosis. Additionally, the crosstalk between integrin and TGF-β signaling may be important in the regulation of pathological epithelial to mesenchymal transition (EMT) and myofibroblast differentiation. […] As a consequences of NP-011 treatment in TGF-β1-treated HSCs, the proliferative HSCs returned to quiescent status (FIG. 7D). […]
# [2] = biological target: T2, integrin β5 (integrin αvβ5) (human, UniProt P18084 24-799; P06756 31-1048); assay: proximity ligation assay in human HSCs
# T2 construct: whole, on cells; The assays detect the β5 chain with an antibody; The legend speaks of integrin αvβ5 on HSCs; also called Integrin B5; integrin β3/β5
# T2 sequence (P18084 24-799, chain 1 of 2): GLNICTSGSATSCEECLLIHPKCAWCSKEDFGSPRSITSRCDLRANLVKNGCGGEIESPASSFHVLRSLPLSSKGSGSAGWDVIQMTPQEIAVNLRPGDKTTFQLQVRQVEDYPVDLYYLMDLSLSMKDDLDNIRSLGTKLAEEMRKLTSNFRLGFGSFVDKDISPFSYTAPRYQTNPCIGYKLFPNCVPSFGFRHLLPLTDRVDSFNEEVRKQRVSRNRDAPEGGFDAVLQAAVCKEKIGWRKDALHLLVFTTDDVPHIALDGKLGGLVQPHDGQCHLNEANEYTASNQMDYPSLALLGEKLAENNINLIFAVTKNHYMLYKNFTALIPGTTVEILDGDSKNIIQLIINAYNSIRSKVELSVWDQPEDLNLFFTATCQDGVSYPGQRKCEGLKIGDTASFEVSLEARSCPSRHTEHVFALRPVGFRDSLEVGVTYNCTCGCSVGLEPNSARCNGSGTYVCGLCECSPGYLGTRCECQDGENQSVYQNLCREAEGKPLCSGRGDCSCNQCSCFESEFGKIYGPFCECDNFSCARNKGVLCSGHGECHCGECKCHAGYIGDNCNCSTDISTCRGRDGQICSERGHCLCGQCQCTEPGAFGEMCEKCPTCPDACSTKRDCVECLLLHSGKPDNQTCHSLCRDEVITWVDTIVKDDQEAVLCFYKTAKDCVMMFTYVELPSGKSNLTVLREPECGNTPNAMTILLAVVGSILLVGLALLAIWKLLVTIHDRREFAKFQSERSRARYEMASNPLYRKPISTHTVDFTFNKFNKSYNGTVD
# T2 sequence (P06756 31-1048, chain 2 of 2): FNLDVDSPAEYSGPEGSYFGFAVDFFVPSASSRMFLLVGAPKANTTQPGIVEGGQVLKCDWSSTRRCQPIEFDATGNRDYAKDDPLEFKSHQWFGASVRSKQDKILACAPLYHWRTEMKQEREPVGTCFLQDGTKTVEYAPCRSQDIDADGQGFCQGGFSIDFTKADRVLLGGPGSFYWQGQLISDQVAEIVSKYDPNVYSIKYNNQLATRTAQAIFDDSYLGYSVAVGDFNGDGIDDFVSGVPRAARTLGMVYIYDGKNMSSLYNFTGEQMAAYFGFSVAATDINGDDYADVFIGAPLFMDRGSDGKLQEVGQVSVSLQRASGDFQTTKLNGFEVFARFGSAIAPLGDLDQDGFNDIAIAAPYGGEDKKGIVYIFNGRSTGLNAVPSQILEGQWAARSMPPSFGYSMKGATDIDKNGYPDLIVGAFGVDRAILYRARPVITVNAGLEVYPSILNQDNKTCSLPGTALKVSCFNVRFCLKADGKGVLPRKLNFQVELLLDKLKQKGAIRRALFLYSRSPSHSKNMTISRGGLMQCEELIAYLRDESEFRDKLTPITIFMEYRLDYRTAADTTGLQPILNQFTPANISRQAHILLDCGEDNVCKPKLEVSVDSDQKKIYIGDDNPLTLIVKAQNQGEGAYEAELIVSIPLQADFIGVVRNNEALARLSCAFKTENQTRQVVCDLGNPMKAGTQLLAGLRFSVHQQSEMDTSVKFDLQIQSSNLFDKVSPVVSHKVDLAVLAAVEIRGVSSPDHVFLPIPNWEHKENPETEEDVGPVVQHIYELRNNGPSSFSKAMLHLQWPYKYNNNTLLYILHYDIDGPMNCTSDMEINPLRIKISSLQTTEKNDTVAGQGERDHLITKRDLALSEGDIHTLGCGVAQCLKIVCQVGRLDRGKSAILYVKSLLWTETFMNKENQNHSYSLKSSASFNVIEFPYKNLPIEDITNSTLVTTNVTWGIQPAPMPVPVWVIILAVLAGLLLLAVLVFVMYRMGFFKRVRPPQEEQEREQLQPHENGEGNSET
# Procedure: as §1, §2
# T1 sequence (P05106 27-788, chain 1 of 2): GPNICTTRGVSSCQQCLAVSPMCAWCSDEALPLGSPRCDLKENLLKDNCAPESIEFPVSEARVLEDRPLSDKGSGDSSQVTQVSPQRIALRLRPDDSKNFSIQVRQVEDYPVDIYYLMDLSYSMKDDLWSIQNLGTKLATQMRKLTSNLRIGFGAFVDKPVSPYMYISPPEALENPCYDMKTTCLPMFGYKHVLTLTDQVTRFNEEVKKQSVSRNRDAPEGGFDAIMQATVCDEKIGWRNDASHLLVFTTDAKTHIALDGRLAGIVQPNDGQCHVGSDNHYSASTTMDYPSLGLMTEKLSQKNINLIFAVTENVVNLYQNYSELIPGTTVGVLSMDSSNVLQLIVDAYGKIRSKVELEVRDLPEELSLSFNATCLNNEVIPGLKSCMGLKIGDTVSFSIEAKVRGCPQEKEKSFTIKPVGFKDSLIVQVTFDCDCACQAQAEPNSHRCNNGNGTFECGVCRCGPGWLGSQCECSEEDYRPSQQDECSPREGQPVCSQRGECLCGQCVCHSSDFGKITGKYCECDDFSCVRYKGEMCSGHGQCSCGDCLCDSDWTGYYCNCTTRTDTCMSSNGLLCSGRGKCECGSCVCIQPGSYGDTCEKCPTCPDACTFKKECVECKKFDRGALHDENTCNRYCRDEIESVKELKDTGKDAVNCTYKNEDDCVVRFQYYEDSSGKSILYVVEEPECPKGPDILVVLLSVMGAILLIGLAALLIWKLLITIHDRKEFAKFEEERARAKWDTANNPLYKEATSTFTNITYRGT
# T1 sequence (P06756 31-1048, chain 2 of 2): as the sequence (P06756 31-1048, chain 2 of 2) above
binder,measurement,setting,value
"TGF-β receptor 1 (TGFBRI) (receptor, human, UniProt P36897 34-503, looked up, whole, on cells; Endogenous protein of human HSCs; Detected in situ by PLA and pulled down from cell lysate with a TGFβRI antibody (Abcam ab31013); also called TGFβRI; TGFBR1) LQCFCHLCTKDNFTCVTDGLCFVSVTETTDKVIHNSMCIAEIDLIPRDRPFVCAPSSKTGSVTTTYCCNQDHCNKIELPTTVKSSPGLGPVELAAVIAGPVCFVCISLMLMVYICHNRTVIHHRVPNEEDPSLDRPFISEGTTLKDLIYDMTTSGSGSGLPLLVQRTIARTIVLQESIGKGRFGEVWRGKWRGEEVAVKIFSSREERSWFREAEIYQTVMLRHENILGFIAADNKDNGTWTQLWLVSDYHEHGSLFDYLNRYTVTVEGMIKLALSTASGLAHLHMEIVGTQGKPAIAHRDLKSKNILVKKNGTCCIADLGLAVRHDSATDTIDIAPNHRVGTKRYMAPEVLDDSINMKHFESFKRADIYAMGLVFWEIARRCSIGGIHEDYQLPYYDLVPSDPSVEEMRKVVCEQKLRPNIPNRWQSCEALRVMAKIMRECWYANGAARLTALRIKKTLSQLSQQEGIKM",binding result,[1],binds
same,binding result,[2],binds
